Results from IntAct's records for PubMed 18715118.

B1: Metallothionein expression activator (Saccharomyces cerevisiae), P21192 (parent)
chain: MDNVVDPWYINPSGFAKDTQDEEYVQHHDNVNPTIPPPDNYILNNENDDGLDNLLGMDYYNIDDLLTQELRDLDIPLVPSPKTGDGSSDKKNIDRTWNLGDENNKVSHYSKKSMSSHKRGLSGTAIFGFLGHNKTLSISSLQQSILNMSKDPQPMELINELGNHNTVKNNNDDFDHIRENDGENSYLSQVLLKQQEELRIALEKQKEVNEKLEKQLRDNQIQQEKLRKVLEEQEEVAQKLVSGATNSNSKPGSPVILKTPAMQNGRMKDNAIIVTTNSANGGYQFPPPTLISPRMSNTSINGSPSRKYHRQRYPNKSPESNGLNLFSSNSGYLRDSELLSFSPQNYNLNLDGLTYNDHNNTSDKNNNDKKNSTGDNIFRLFEKTSPGGLSISPRINGNSLRSPFLVGTDKSRDDRYAAGTFTPRTQLSPIHKKRESVVSTVSTISQLQDDTEPIHMRNTQNPTLRNANALASSSVLPPIPGSSNNTPIKNSLPQKHVFQHTPVKAPPKNGSNLAPLLNAPDLTDHQLEIKTPIRNNSHCEVESYPQVPPVTHDIHKSPTLHSTSPLPDEIIPRTTPMKITKKPTTLPPGTIDQYVKELPDKLFECLYPNCNKVFKRRYNIRSHIQTHLQDRPYSCDFPGCTKAFVRNHDLIRHKISHNAKKYICPCGKRFNREDALMVHRSRMICTGGKKLEHSINKKLTSPKKSLLDSPHDTSPVKETIARDKDGSVLMKMEEQLRDDMRKHGLLDPPPSTAAHEQNSNRTLSNETDAL

Variants of: B1
Conditions: with cbk1_yeast CBK1, P53894
cbk1_yeast CBK1, P53894, sequence (P53894 whole entry): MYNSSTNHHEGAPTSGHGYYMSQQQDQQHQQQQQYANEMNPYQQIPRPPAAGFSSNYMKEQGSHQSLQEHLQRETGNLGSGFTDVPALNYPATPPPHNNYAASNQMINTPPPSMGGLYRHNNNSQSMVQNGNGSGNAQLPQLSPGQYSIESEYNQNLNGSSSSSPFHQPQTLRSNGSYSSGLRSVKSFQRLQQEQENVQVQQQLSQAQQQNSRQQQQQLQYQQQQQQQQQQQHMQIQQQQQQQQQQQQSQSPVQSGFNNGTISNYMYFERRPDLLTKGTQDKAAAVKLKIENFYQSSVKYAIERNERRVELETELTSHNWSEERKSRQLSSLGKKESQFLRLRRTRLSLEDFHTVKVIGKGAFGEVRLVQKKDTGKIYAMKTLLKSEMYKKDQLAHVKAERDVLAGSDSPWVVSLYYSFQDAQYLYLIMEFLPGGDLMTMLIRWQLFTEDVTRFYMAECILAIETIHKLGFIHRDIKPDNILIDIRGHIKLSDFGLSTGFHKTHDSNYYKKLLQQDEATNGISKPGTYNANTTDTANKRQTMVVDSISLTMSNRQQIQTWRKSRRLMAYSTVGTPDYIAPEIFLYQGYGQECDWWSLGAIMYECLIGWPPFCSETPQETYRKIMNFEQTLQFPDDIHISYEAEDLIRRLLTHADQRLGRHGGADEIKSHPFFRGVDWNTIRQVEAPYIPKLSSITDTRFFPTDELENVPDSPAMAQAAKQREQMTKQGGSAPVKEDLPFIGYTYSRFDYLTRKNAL

Variant	effect of a mutation on the interaction
S113A;S122A;S137A	disrupting interaction
S113A;H117A;S137A	disrupting interaction

Variants of: B1
Conditions: with xpo1_yeast CRM1, P30822

Variant	effect of a mutation on the interaction
F127V	decreasing interaction

Variants of: B1
Conditions: with xpo1_yeast CRM1, P30822
Remark: another data set of the same source

Variant	effect of a mutation on the interaction
F127V	disrupting interaction
S122D;S137D	disrupting interaction
S137D	decreasing interaction
S122D	decreasing interaction
